From article PMC5472440

What was measured:
[1] = system: hIno80CTD (human); test: MST; details: Hill coefficient 1.8 +/- 0.2, MST: 25 mM HEPES pH 8.0, 50 mM NaCl, 1 mM TCEP, 10% glycerol, 0.01% Tween-20, 0.1 mg/mL BSA, 25 C, EMSA: 25 mM HEPES pH 8.0, 50 mM NaCl, 0.5 mM …
[2] = system: hIno80CTD (human); test: EMSA; details: Kd apparent, 50 nM DNA, MST: 25 mM HEPES pH 8.0, 50 mM NaCl, 1 mM TCEP, 10% glycerol, 0.01% Tween-20, 0.1 mg/mL BSA, 25 C, EMSA: 25 mM HEPES pH 8.0, 50 mM NaCl, 0.5 mM …

## 50 bp duplex DNA
[1]
  K half: 1000 nM
[2]
  Kd: 1 µM
